Experimental data: patent US20120301930A1 (YEDA RESEARCH AND DEVELOPMENT, published 2012)

How the values were obtained:
[1] = molecular target: T1, 11A-a chimera (catalytic module of T. fusca Xyn11A attached directly to dockerin B from Acetivibrio …); test: affinity-based ELISA; complex formation also by non-denaturing PAGE
T1 construct: Recombinant chimera expressed in E. coli, purified on a Ni column (His-tag)

[2] = molecular target: T2, 11A-XBM-a chimera (catalytic module of T. fusca Xyn11A together with its adjacent XBM attached to dockerin B …); test: as above
T2 construct: Recombinant chimera expressed in E. coli, purified on a Ni column (His-tag); also called variant Xyn11A

[3] = molecular target: T3, f-5A chimera (catalytic module of T. fusca family-5 endoglucanase Cel5A fused to a dockerin from Ruminococcus …); test: non-denaturing PAGE mobility shift, equimolar mixture
T3 construct: Recombinant chimera expressed in E. coli; all enzyme constructs were designed to contain a His-tag; also called variant Cel5A
T3 chain: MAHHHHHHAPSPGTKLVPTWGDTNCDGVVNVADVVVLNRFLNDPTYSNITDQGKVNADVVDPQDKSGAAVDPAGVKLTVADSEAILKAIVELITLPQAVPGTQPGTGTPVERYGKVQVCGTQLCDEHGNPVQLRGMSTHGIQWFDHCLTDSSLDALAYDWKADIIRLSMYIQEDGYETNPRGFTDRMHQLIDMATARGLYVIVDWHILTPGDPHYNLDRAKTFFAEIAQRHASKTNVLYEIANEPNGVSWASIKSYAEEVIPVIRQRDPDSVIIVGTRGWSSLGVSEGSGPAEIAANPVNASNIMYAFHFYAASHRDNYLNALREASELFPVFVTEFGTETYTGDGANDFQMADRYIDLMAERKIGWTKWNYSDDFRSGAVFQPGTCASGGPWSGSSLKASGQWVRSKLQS

Measured: binding result

B1: Scaf-AF chimeric scaffoldin (cohesin 3 from A. cellulolyticus scaffoldin C, CBM3a from C. thermocellum, cohesin 1 from R. flavefaciens scaffoldin B) (other)
chain: MDLQVDIGSTSGKAGSVVSVPITFTNVPKSGIYALSFRTNFDPQKVTVASIDAGSLIENASDFTTYYNNENGFASMTFEAPVDRARIIDSDGVFATINFKVSDSAKVGELYNITTNSAYTSFYYSGTDEIKNVVYNDGKIEVIASVPTNTPTNTPANTPVSGNLKVEFYNSNPSDTTNSINPQFKVTNTGSSAIDLSKLTLRYYYTVDGQKDQTFWCDHAAIIGSNGSYNGITSNVKGTFVKMSSSTNNADTYLEISFTGGTLEPGAHVQIQGRFAKNDWSNYTQSNDYSFKSASQFVEWDQVTAYLNGVLVWGKEPGGSVVPSTQPVTTPPATTKPPATTIPPSEDPAGGLSAVQPNVSLGEVLDVSANRTAADGTVEWLIPTVTAAPGQTVTMPVVVKSSSLAVAGAQFKIQAATGVSYSSKTDGDAYGSGIVYNNSKYAFGQGAGRGIVAADDSVVLTLAYTVPADCAEGTYDVKWSDAFVSDTDGQNITSKVTLTDGAIIVHHHHHH
binds: [1] | [2] | [3]
